Laboratory results: the supplement of paper PMC9112550, “Optimization of the antimicrobial peptide Bac7 by deep mutational scanning” (BMC Biology, 2022)

tested on: Escherichia coli TOP10; test: shrunken log2 fold change of peptide-encoding DNA abundance (4.5 h post-induction vs induction); higher = less antimicrobial activity (less host growth inhibition); conditions: time post-induction: 4.5 h; library: site-saturation at positions 5, 18, 19, 20
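Further: peptides expressed intracellularly from a pBAD plasmid library in pooled LB shake-flask culture, induced with 0.3% L-arabinose, DNA abundance read by NGS, three biological replicates, DESeq2 with apeglm shrinkage.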

| Sequence | shrunken log2 fold change |
| --- | --- |
| RRIRLRPPRLPRPRPRPGNSPRP | -0.0133 |
| RRIRLRPPRLPRPRPRPGRSPRP | 0.326 |
| RRIRLRPPRLPRPRPRPGTVPRP | -0.0516 |
| RRIRLRPPRLPRPRPRPGTYPRP | 0.386 |
| RRIRLRPPRLPRPRPRPGVVPRP | 0.27 |
| RRIRLRPPRLPRPRPRPGWQPRP | 0.175 |
| RRIRLRPPRLPRPRPRPGYEPRP | -0.11 |
| RRIRLRPPRLPRPRPRPGYLPRP | -0.282 |
| RRIRLRPPRLPRPRPRPHCAPRP | -0.309 |
| RRIRLRPPRLPRPRPRPHDCPRP | -0.0305 |
| RRIRLRPPRLPRPRPRPHDFPRP | -0.205 |
| RRIRLRPPRLPRPRPRPHDNPRP | -0.526 |
| RRIRLRPPRLPRPRPRPHDSPRP | 0.0936 |
| RRIRLRPPRLPRPRPRPHEAPRP | 0.107 |
| RRIRLRPPRLPRPRPRPHFAPRP | -0.0165 |
| RRIRLRPPRLPRPRPRPHFRPRP | -0.102 |
| RRIRLRPPRLPRPRPRPHFWPRP | 0.144 |
| RRIRLRPPRLPRPRPRPHGVPRP | -0.0127 |
| RRIRLRPPRLPRPRPRPHHEPRP | 0.0418 |
| RRIRLRPPRLPRPRPRPHKNPRP | -0.256 |
| RRIRLRPPRLPRPRPRPHLHPRP | -0.424 |
| RRIRLRPPRLPRPRPRPHMIPRP | -0.672 |
| RRIRLRPPRLPRPRPRPHMYPRP | -1.07 |
| RRIRLRPPRLPRPRPRPHPIPRP | 0.0174 |
| RRIRLRPPRLPRPRPRPHPMPRP | -0.173 |

| Sequence | shrunken log2 fold change |
| --- | --- |
| RRIRLRPPRLPRPRPRPHPNPRP | -0.247 |
| RRIRLRPPRLPRPRPRPHQEPRP | -0.00192 |
| RRIRLRPPRLPRPRPRPHQMPRP | -0.199 |
| RRIRLRPPRLPRPRPRPHQWPRP | -0.0297 |
| RRIRLRPPRLPRPRPRPHSTPRP | -0.149 |
| RRIRLRPPRLPRPRPRPHTSPRP | -0.112 |
| RRIRLRPPRLPRPRPRPHVLPRP | -0.0737 |
| RRIRLRPPRLPRPRPRPHWVPRP | -0.189 |
| RRIRLRPPRLPRPRPRPHYAPRP | -0.133 |
| RRIRLRPPRLPRPRPRPHYDPRP | -0.0502 |
| RRIRLRPPRLPRPRPRPHYKPRP | -0.525 |
| RRIRLRPPRLPRPRPRPHYYPRP | -0.438 |
| RRIRLRPPRLPRPRPRPICDPRP | 0.0695 |
| RRIRLRPPRLPRPRPRPICIPRP | -0.579 |
| RRIRLRPPRLPRPRPRPIDTPRP | 0.115 |
| RRIRLRPPRLPRPRPRPIESPRP | 0.033 |
| RRIRLRPPRLPRPRPRPIFKPRP | -0.276 |
| RRIRLRPPRLPRPRPRPIHYPRP | -0.186 |
| RRIRLRPPRLPRPRPRPIISPRP | -0.513 |
| RRIRLRPPRLPRPRPRPIKYPRP | 0.0258 |
| RRIRLRPPRLPRPRPRPILCPRP | -0.152 |
| RRIRLRPPRLPRPRPRPILKPRP | 0.0777 |
| RRIRLRPPRLPRPRPRPIMPPRP | -0.459 |
| RRIRLRPPRLPRPRPRPIPCPRP | -0.00241 |
| RRIRLRPPRLPRPRPRPIPVPRP | -0.0985 |

| Sequence | shrunken log2 fold change |
| --- | --- |
| RRIRLRPPRLPRPRPRPIQDPRP | -0.105 |
| RRIRLRPPRLPRPRPRPIRGPRP | -0.0599 |
| RRIRLRPPRLPRPRPRPITTPRP | -0.283 |
| RRIRLRPPRLPRPRPRPITVPRP | -0.216 |
| RRIRLRPPRLPRPRPRPIWYPRP | -0.645 |
| RRIRLRPPRLPRPRPRPIYLPRP | -0.654 |
| RRIRLRPPRLPRPRPRPIYNPRP | -0.989 |
| RRIRLRPPRLPRPRPRPIYRPRP | -0.0597 |
| RRIRLRPPRLPRPRPRPIYYPRP | -0.561 |
| RRIRLRPPRLPRPRPRPKACPRP | 0.16 |
| RRIRLRPPRLPRPRPRPKAGPRP | 0.221 |
| RRIRLRPPRLPRPRPRPKAPPRP | 0.00522 |
| RRIRLRPPRLPRPRPRPKAYPRP | -0.402 |
| RRIRLRPPRLPRPRPRPKCAPRP | 0.0163 |
| RRIRLRPPRLPRPRPRPKCGPRP | 0.338 |
| RRIRLRPPRLPRPRPRPKDFPRP | 0.0642 |
| RRIRLRPPRLPRPRPRPKDPPRP | -0.221 |
| RRIRLRPPRLPRPRPRPKEAPRP | -0.011 |
| RRIRLRPPRLPRPRPRPKFGPRP | 0.146 |
| RRIRLRPPRLPRPRPRPKHIPRP | -0.241 |
| RRIRLRPPRLPRPRPRPKHWPRP | 0.31 |
| RRIRLRPPRLPRPRPRPKKIPRP | -0.104 |
| RRIRLRPPRLPRPRPRPKKNPRP | 0.144 |
| RRIRLRPPRLPRPRPRPKKPPRP | 0.0873 |
| RRIRLRPPRLPRPRPRPKLVPRP | -0.0181 |

| Sequence | shrunken log2 fold change |
| --- | --- |
| RRIRLRPPRLPRPRPRPKMQPRP | 0.282 |
| RRIRLRPPRLPRPRPRPKMTPRP | -0.181 |
| RRIRLRPPRLPRPRPRPKNAPRP | -0.238 |
| RRIRLRPPRLPRPRPRPKPSPRP | 0.432 |
| RRIRLRPPRLPRPRPRPKRVPRP | -0.116 |
| RRIRLRPPRLPRPRPRPKSYPRP | -0.592 |
| RRIRLRPPRLPRPRPRPKWIPRP | 0.137 |
| RRIRLRPPRLPRPRPRPLAPPRP | 0.274 |
| RRIRLRPPRLPRPRPRPLARPRP | 0.615 |
| RRIRLRPPRLPRPRPRPLAVPRP | 0.139 |
| RRIRLRPPRLPRPRPRPLCFPRP | -0.233 |
| RRIRLRPPRLPRPRPRPLCKPRP | -0.398 |
| RRIRLRPPRLPRPRPRPLDEPRP | -0.0999 |
| RRIRLRPPRLPRPRPRPLDLPRP | -0.481 |
| RRIRLRPPRLPRPRPRPLEAPRP | 0.41 |
| RRIRLRPPRLPRPRPRPLECPRP | 0.184 |
| RRIRLRPPRLPRPRPRPLEPPRP | 0.0493 |
| RRIRLRPPRLPRPRPRPLFFPRP | 0.417 |
| RRIRLRPPRLPRPRPRPLHQPRP | -0.297 |
| RRIRLRPPRLPRPRPRPLHRPRP | -0.226 |
| RRIRLRPPRLPRPRPRPLIMPRP | -0.435 |
| RRIRLRPPRLPRPRPRPLIQPRP | -0.247 |
| RRIRLRPPRLPRPRPRPLKGPRP | -0.0279 |
| RRIRLRPPRLPRPRPRPLLSPRP | -0.327 |
| RRIRLRPPRLPRPRPRPLPDPRP | 0.327 |

| Sequence | shrunken log2 fold change |
| --- | --- |
| RRIRLRPPRLPRPRPRPLPNPRP | 0.11 |
| RRIRLRPPRLPRPRPRPLQSPRP | 0.0468 |
| RRIRLRPPRLPRPRPRPLRHPRP | 0.171 |
| RRIRLRPPRLPRPRPRPLRTPRP | 1.18 |
| RRIRLRPPRLPRPRPRPLSSPRP | -0.0447 |
| RRIRLRPPRLPRPRPRPLTMPRP | -0.427 |
| RRIRLRPPRLPRPRPRPLTWPRP | 0.0168 |
| RRIRLRPPRLPRPRPRPLVGPRP | 0.246 |
| RRIRLRPPRLPRPRPRPLWTPRP | -0.0559 |
| RRIRLRPPRLPRPRPRPLWYPRP | -0.191 |
| RRIRLRPPRLPRPRPRPLYVPRP | -0.897 |
| RRIRLRPPRLPRPRPRPMAPPRP | 0.19 |
| RRIRLRPPRLPRPRPRPMATPRP | -0.187 |
| RRIRLRPPRLPRPRPRPMDAPRP | 0.282 |
| RRIRLRPPRLPRPRPRPMDLPRP | -0.171 |
| RRIRLRPPRLPRPRPRPMDRPRP | -0.0152 |
| RRIRLRPPRLPRPRPRPMELPRP | -0.00973 |
| RRIRLRPPRLPRPRPRPMFSPRP | -0.267 |
| RRIRLRPPRLPRPRPRPMFTPRP | -0.0806 |
| RRIRLRPPRLPRPRPRPMGEPRP | 0.136 |
| RRIRLRPPRLPRPRPRPMIAPRP | -0.141 |
| RRIRLRPPRLPRPRPRPMIIPRP | -0.407 |
| RRIRLRPPRLPRPRPRPMLCPRP | -0.0499 |
| RRIRLRPPRLPRPRPRPMPLPRP | -0.043 |
| RRIRLRPPRLPRPRPRPMRMPRP | -0.076 |

| Sequence | shrunken log2 fold change |
| --- | --- |
| RRIRLRPPRLPRPRPRPMRNPRP | 0.372 |
| RRIRLRPPRLPRPRPRPMSFPRP | -0.284 |
| RRIRLRPPRLPRPRPRPMTAPRP | 0.0114 |
| RRIRLRPPRLPRPRPRPMTQPRP | 0.162 |
| RRIRLRPPRLPRPRPRPMTRPRP | 0.314 |
| RRIRLRPPRLPRPRPRPMVMPRP | -0.0937 |
| RRIRLRPPRLPRPRPRPMWEPRP | 0.00629 |
| RRIRLRPPRLPRPRPRPMYAPRP | -0.248 |
| RRIRLRPPRLPRPRPRPMYNPRP | -0.273 |
| RRIRLRPPRLPRPRPRPNAIPRP | -0.385 |
| RRIRLRPPRLPRPRPRPNAVPRP | 0.00719 |
| RRIRLRPPRLPRPRPRPNCAPRP | 0.415 |
| RRIRLRPPRLPRPRPRPNCGPRP | -0.0908 |
| RRIRLRPPRLPRPRPRPNDEPRP | 0.0316 |
| RRIRLRPPRLPRPRPRPNDHPRP | -0.43 |
| RRIRLRPPRLPRPRPRPNEFPRP | -0.168 |
| RRIRLRPPRLPRPRPRPNEQPRP | -0.0127 |
| RRIRLRPPRLPRPRPRPNESPRP | -0.00771 |
| RRIRLRPPRLPRPRPRPNFTPRP | -0.501 |
| RRIRLRPPRLPRPRPRPNFVPRP | -0.196 |
| RRIRLRPPRLPRPRPRPNGFPRP | -0.27 |
| RRIRLRPPRLPRPRPRPNHFPRP | -0.349 |
| RRIRLRPPRLPRPRPRPNKWPRP | -0.066 |
| RRIRLRPPRLPRPRPRPNKYPRP | -0.742 |
| RRIRLRPPRLPRPRPRPNLMPRP | -0.367 |
